The values that follow are results of earlier work, collected in PMC5606850.

By Kd is commonly meant a measure of binding affinity in units of concentration.

In this series the target is HTLV-1 nucleocapsid NTD (Human T-cell leukemia virus type 1) (UniProt P03345).
Sequence of HTLV-1 nucleocapsid NTD (Human T-cell leukemia virus type 1) (P03345 345-395): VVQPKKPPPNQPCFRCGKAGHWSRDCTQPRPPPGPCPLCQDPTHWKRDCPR

Sequence of HTLV-1 nucleocapsid CTD (P03345 396-429): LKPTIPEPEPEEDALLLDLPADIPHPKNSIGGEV

As to “HTLV-1 nucleocapsid CTD (from UniProt P03345)”, the equilibrium dissociation constant (Kd) was 200 nM.
